Columns and labels:
recombinant human M-CSF [1] = target: T1, recombinant human M-CSF (human, UniProt P09603 33-190, limits assumed); experiment: SPR (Biacore), M-CSF amine-coupled on CM5 chip, antibody flowed
T1 construct: The active form is described as a disulfide bonded dimer; also called M-SCF; CSF-1
T1 sequence: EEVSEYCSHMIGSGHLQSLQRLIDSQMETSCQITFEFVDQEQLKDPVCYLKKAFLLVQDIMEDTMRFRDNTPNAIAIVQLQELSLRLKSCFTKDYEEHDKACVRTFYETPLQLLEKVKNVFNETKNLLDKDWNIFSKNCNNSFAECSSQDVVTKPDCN
Procedure: (§1) To determine the relative differences in the binding affinity of intact antibodies by Biacore analysis, M-CSF was immobilized onto CMS biosensor chip via amine coupling. 0.05 μg/ml M-CSF in 10 mM Na-Acetate pH 4.0 was injected at 1 μl/min for 5 minutes to achieve RL=6-12 RU. Test antibody or Fab fragments were flowed over the modified biosensor surface at varying concentrations ranging from 100 nM to 1.5 nM in 2-fold dilutions. Test antibodies were diluted in 0.01 M HEPES pH 7.4, 0.15 M NaCL, 3 mM EDTA, 0.005% Surfactant P20 (HBS-EP) and all experiments were done at 25° C. Each concentration point and buffer blanks were run in triplicate, and data was collected over 3 minutes of association and 8 minutes of dissociation. Kinetic and affinity constants were determined using Biaevaluation software with a 1:1 interaction model/global fit.

recombinant human M-CSF [2] = target: T1, recombinant human M-CSF; experiment: cell-based or functional assay
recombinant human M-CSF [3] = target: T1, recombinant human M-CSF; experiment: SPR (Biacore), M-CSF amine-coupled on CM5 chip, antibody flowed 100 nM to 1.5 nM, 25 C, 1:1 model, n = 2
Procedure: as §1

recombinant human M-CSF [4] = target: T1, recombinant human M-CSF; experiment: SPR (Biacore), M-CSF amine-coupled on CM5 chip, antibody flowed, 25 C, 1:1 model, n = 2
Procedure: as §1

recombinant human M-CSF [5] = target: T1, recombinant human M-CSF; experiment: SPR (Biacore), antibody captured on anti-mouse Fc chip, M-CSF flowed, 25 C, 1:1 model
Procedure: Binding properties of the aforementioned antibodies were analyzed using Biacore analyses. […] The aforementioned antibodies were then captured on the anti-mouse Fc/CM5 biosensor chip at 1.5 μg/ml for 3 min at 2 μl/min. MCSF was flowed over the modified biosensor surface at varying concentrations (Rmax ˜15). Test antibodies and antigen were diluted in 0.01 M HEPES pH 7.4, 0.15 M NaCL, 3 mM EDTA, 0.005% Surfactant P20 (HBS-EP). All experiments were performed at 25° C. Kinetic and affinity constants were determined using Biaevaluation software (Biacore) with a 1:1 interaction model/global fit.

recombinant human M-CSF [6] = target: T1, recombinant human M-CSF; experiment: cell-based or functional assay; remark: listed apart in the source
recombinant human M-CSF [7] = target: T1, recombinant human M-CSF; experiment: SPR (Biacore), M-CSF amine-coupled on CM5 chip, antibody flowed, 25 C, 1:1 model, n = 21
Procedure: as §1

recombinant human M-CSF [8] = target: T1, recombinant human M-CSF; experiment: SPR (Biacore), M-CSF amine-coupled on CM5 chip, antibody flowed 100 nM to 1.5 nM, 25 C, 1:1 model, n = 21
Procedure: as §1

recombinant human M-CSF [9] = target: T1, recombinant human M-CSF; experiment: SPR (Biacore), M-CSF amine-coupled on CM5 chip, antibody or Fab flowed, 25 C, 1:1 model
Procedure: Specifically, M-CSF was immobilized onto CM5 biosensor chip via amine coupling. 0.05 μg/ml M-CSF in 10mM Na Acetate pH 4.0 was injected at 1 μl/min for 5 minutes to achieve RL=6-12 RU. Test antibody (or Fab fragment) were flowed over the modified biosensor surface at varying concentrations. Test antibodies were diluted in 0.01 M HEPES pH 7.4, 0.15 M NaCL, 3 mM EDTA, 0.005% Surfactant P20 (HBS-EP) and all experiments were done at 25° C. Kinetic and affinity constants were determined using Biaevaluation software (Biacore) with a 1:1 interaction model/global fit.

B1: heRX1-10.G2 (antibody, V domains shown)
VH: QVQLQESGPGLVKPSQTLSLTCTVSDYSITSDYAWNWIRQFPGKGLEWMGYISYSGSTSYNPSLKSRITISRDTSKNQFSLQLNSVTAADTAVYYCASFDYAHAMDYWGQGTTVTVSS
VL: DIVLTQSPAFLSVTPGEKVTFTCQASQSIGTSIHWYQQKTDQAPKLLIKYASESISGIPSRFSGSGSGTDFTLTISSVEAEDAADYYCQQINSWPTTFGGGTKLEIKR
notes: not shown: human Gamma-2 heavy chain constant region; human Kappa light chain constant region (the V region entry may overlap its start)
With B1 the “fold decrease in binding affinity compared to the parent murine antibody” value (recombinant human M-CSF [1]) was no less than 7 fold, the “IC50 Fold Loss” value (recombinant human M-CSF [2]) was 2.2 fold and the Kd (recombinant human M-CSF [3]) was 6.3 nM. The koff (recombinant human M-CSF [3]) was 0.0011 s⁻¹, the kon (recombinant human M-CSF [3]) was 173000 M⁻¹ s⁻¹ and the Kd (recombinant human M-CSF [4]) was 6.3 nM. It also gave a koff (recombinant human M-CSF [4]) of 0.0011 s⁻¹ and a kon (recombinant human M-CSF [4]) of 173000 M⁻¹ s⁻¹.

B2: murine monoclonal antibody RX1 (antibody, V domains shown)
VH: DVQLQESGPGLVKPSQSLSLTCTVTDYSITSDYAWNWIRQFPGNKLEWMGYISYSGSTSYNPSLKSRISITRDTSKNQFFLQLNSVTTEDTATYYCASFDYAHAMDYWGQGTSVTVSS
VL: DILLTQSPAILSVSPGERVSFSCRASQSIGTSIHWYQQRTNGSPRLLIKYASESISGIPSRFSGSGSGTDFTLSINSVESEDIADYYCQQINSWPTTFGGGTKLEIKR
notes: Intact murine antibody; The hybridoma or commercial RX1 and the recombinant murine RX1 (rRX1, rmRX1) are treated as one molecule; also called Murine RX1; rRX1(mouse)
B2 was tested, and the Kd (recombinant human M-CSF [5]) was 0.16 nM, the koff (recombinant human M-CSF [5]) was 0.00027 s⁻¹ and the kon (recombinant human M-CSF [5]) was 1.64e+06 M⁻¹ s⁻¹. For the same binder, the “EC50 (M-CSF neutralization)” value (recombinant human M-CSF [6]) was 2 ng/mL, the Kd (recombinant human M-CSF [7]) was 0.7 nM and the koff (recombinant human M-CSF [7]) was 0.000156 s⁻¹. The kon (recombinant human M-CSF [7]) was 223000 M⁻¹ s⁻¹, the Kd (recombinant human M-CSF [8]) was 0.7 nM and the koff (recombinant human M-CSF [8]) was 0.000156 s⁻¹. The kon (recombinant human M-CSF [8]) was 223000 M⁻¹ s⁻¹, the Kd (recombinant human M-CSF [9]) was 1 nM and the koff (recombinant human M-CSF [9]) was 0.000235 s⁻¹. For the same binder, the kon (recombinant human M-CSF [9]) was 234000 M⁻¹ s⁻¹.
